These are literature values, as cited in article PMC3037977.

Like-named read-outs stand apart in the source and are kept apart here.

In series [1] the target is importin β (Homo sapiens) (UniProt Q14974).
Series [2] shares this target. The source holds these as a separate data set.

Sequence of importin β (Homo sapiens) (Q14974 whole entry): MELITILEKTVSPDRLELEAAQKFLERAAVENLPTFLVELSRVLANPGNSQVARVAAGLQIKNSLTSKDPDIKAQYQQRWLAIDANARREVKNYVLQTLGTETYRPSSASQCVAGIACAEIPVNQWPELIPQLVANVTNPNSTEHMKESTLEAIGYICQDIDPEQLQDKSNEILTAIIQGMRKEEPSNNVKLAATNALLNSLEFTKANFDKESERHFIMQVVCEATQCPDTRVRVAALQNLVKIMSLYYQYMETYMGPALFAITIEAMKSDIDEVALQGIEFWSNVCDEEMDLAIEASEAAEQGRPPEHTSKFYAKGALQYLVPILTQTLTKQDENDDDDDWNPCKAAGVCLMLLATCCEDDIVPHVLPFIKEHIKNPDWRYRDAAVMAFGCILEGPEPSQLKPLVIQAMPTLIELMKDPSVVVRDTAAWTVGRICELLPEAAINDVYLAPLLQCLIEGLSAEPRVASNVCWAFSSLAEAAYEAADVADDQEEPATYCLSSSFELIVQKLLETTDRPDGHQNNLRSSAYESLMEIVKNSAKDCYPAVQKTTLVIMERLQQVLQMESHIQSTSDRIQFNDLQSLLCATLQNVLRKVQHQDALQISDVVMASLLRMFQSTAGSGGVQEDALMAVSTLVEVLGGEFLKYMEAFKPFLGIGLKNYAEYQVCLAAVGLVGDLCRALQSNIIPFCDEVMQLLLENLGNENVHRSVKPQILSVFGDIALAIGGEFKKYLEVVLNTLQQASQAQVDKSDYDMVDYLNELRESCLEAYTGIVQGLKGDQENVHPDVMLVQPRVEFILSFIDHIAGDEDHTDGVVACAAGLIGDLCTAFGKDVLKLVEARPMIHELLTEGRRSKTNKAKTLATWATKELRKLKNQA
Sequence of snurportin IBB domain (O95149 8-76): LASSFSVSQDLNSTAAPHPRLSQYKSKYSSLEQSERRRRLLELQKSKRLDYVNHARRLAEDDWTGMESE

In the case of “importin α1 IBB domain (from UniProt P52292)”, the Kd in series [1] was 2 nM. Consider “snurportin IBB domain (from UniProt O95149)”, for which the Kd in series [2] was 2 nM.

For orientation: Kd means the constant that tells how readily two partners part at equilibrium.
